Test results reported in article PMC11709261.
Where two headings read alike, the source gives them in different places.

What was measured:
Experiment in all cases: two-hybrid; bacterial adenylate cyclase two-hybrid (BACTH) in E. coli BTH101 (cya) or derivatives (ΔdsbA AP58, ΔdjlA AP63, rcsB::tet EAW1, rcsC::tet EAW2, rcsF::cat EAW4); proteins fused at their C-terminus to T18 or T25; some sets with DjlA or DjlA variants co-expressed downstream of IgaA-T18; overnight growth in LB with 0.5 mM IPTG at 30°C; beta-galactosidase (ONPG, OD420 kinetics at 28°C), plotted relative to IgaA/RcsD
[1] = biological target: RcsD (E. coli) (UniProt P39838)
UniProt P39838, sequence (P39838 whole entry): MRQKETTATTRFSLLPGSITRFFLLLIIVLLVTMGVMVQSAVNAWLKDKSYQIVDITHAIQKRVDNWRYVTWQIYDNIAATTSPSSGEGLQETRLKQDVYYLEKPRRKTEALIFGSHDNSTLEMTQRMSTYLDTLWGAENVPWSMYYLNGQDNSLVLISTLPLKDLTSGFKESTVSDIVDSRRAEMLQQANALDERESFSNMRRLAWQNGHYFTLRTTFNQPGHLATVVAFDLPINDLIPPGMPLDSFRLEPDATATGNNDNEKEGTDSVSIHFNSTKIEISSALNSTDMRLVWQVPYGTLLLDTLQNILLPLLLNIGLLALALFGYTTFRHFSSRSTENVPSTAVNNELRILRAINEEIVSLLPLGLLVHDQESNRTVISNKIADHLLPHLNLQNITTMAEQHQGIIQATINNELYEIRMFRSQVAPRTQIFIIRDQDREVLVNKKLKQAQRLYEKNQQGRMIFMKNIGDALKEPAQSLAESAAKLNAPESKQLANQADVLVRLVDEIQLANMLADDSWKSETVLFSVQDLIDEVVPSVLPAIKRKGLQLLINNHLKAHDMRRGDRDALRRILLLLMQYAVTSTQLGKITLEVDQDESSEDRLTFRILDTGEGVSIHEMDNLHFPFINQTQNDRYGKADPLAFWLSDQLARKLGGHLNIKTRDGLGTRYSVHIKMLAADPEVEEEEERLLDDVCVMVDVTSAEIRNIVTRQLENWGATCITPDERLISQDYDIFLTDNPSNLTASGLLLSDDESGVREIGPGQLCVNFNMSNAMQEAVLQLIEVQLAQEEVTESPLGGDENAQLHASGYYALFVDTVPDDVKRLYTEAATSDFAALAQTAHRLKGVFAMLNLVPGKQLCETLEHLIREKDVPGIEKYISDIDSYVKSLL

[2] = biological target: RcsD (E. coli) (UniProt P39838); remark: listed apart in the source
[3] = biological target: RcsD (E. coli) (UniProt P39838); remark: listed apart in the source
[4] = biological target: RcsD (E. coli) (UniProt P39838); remark: listed apart in the source
[5] = biological target: RcsD (E. coli) (UniProt P39838); remark: listed apart in the source
[6] = biological target: RcsD (E. coli) (UniProt P39838); remark: listed apart in the source

Which results are given for IgaA (natural protein)?
beta-galactosidase activity (BACTH) (units (1000x the slope of OD420)) [1]: 577; beta-galactosidase activity (BACTH) [2]: 533 units; beta-galactosidase activity (BACTH) (units (1000x the slope of OD420)) [2]: 545; beta-galactosidase activity (BACTH) (units (1000x the slope of OD420)) [3]: 569; beta-galactosidase activity (BACTH) (units (1000x the slope of OD420)) [4]: 580; beta-galactosidase activity (BACTH) (units (1000x the slope of OD420)) [5]: 578; beta-galactosidase activity (BACTH) (units (1000x the slope of OD420)) [6]: 490
